Data: doi:10.1101/2021.10.20.465166

Tests used:
Assay in all cases: EMSA
C/EBPα bZIP domain = C/EBPα bZIP domain (UniProt P49715 282-345)
C/EBPα p30 = C/EBPα p30 (UniProt P49715-3 1-239)
C/EBPα p42 (full length) = C/EBPα p42 (full length) (UniProt P49715 1-358)
Chain of C/EBPα p42 (full length) (P49715 whole entry): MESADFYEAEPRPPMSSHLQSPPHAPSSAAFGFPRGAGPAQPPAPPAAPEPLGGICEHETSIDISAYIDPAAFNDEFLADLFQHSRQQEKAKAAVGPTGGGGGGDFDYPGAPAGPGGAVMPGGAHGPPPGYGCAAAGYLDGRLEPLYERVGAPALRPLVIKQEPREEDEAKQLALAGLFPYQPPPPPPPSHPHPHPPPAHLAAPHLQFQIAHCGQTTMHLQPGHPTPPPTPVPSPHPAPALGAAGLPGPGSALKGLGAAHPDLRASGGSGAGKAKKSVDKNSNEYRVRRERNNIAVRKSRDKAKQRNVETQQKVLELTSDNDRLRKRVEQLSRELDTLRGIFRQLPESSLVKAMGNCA

Chain of C/EBPα p30 (P49715 120-358): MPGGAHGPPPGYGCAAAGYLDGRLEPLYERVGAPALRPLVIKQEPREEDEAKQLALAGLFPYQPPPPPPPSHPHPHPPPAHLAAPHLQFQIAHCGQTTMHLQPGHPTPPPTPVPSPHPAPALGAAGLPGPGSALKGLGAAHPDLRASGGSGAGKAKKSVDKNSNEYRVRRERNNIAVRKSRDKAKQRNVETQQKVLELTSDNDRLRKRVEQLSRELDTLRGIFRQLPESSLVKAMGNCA
Chain of C/EBPα bZIP domain (P49715 282-345): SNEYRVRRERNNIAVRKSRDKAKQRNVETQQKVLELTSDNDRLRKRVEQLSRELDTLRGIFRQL

CCCCCACCCAGCCAGGCCAAC (ssRNA) [PU.1 intron 4 RNA (PU.1i4)]: no binding (C/EBPα bZIP domain); binds (C/EBPα p30); binds (C/EBPα p42 (full length)).

UUCCCACUCACCCAGCACCC (ssRNA) [CTBP1 intron 2 RNA (CTBP1i2)]: no binding (C/EBPα bZIP domain); binds (C/EBPα p30); binds (C/EBPα p42 (full length)).

GGGACCCGGUUCCCACUCACCCAGC (structured_RNA) [CTBP1 intron 2 negative RNA (CTBP1i2N)]: no binding (C/EBPα p30); no binding (C/EBPα p42 (full length)).
